Key:
[1] = target: T1, six-subunit PRC2 (EZH2-EED-SUZ12-RBAP48-AEBP2-JARID2) (UniProt Q15910-2;O75530;Q15022;Q09028;Q6ZN18-2;Q92833 …); assay: EMSA; 100 mM KCl; EMSA: 50 mM Tris-HCl pH 7.5 (25 C), 100 mM KCl (or LiCl), 2.5 mM MgCl2, 0.1 mM ZnCl2, 2 mM 2-mercaptoethanol, 0.05 mg/ml BSA, 0.05 mg/ml yeast tRNA, 5% glycerol, 30 C 30 min; settings: protein: recombinant, tags: His (EZH2), Strep-GFP (AEBP2, JARID2), TEV treated, AEBP2 retains 7 extra N-terminal aa, copies: 1;1;1;1;1;1, label: 32P 5' (EMSA)
[2] = target: T1, six-subunit PRC2 …; assay: as above; settings: protein: recombinant, tags: His (EZH2), Strep-GFP (AEBP2, JARID2), TEV treated, AEBP2 retains 7 extra N-terminal aa, copies: 1;1;1;1;1;1, label: 32P 5' (EMSA); remark: listed apart in the source
[3] = target: T1, six-subunit PRC2 …; assay: UV crosslinking; very low crosslinking efficiency despite saturated binding; EMSA: 50 mM Tris-HCl pH 7.5 (25 C), 100 mM KCl (or LiCl), 2.5 mM MgCl2, 0.1 mM ZnCl2, 2 mM 2-mercaptoethanol, 0.05 mg/ml BSA, 0.05 mg/ml yeast tRNA, 5% glycerol, 30 C 30 min; settings: protein: recombinant; tags: His (EZH2), Strep-GFP (AEBP2, JARID2); TEV treated; AEBP2 retains 7 extra N-terminal aa; copies: 1;1;1;1;1;1; label: 32P; G4
[4] = target: six-subunit PRC2 AEBP2del261-389 (UniProt Q15910-2;O75530;Q15022;Q09028;Q6ZN18-2;Q92833 …, internal_change); assay: EMSA; P = 0.05 vs WT; EMSA: 50 mM Tris-HCl pH 7.5 (25 C), 100 mM KCl (or LiCl), 2.5 mM MgCl2, 0.1 mM ZnCl2, 2 mM 2-mercaptoethanol, 0.05 mg/ml BSA, 0.05 mg/ml yeast tRNA, 5% glycerol, 30 C 30 min; settings: protein: recombinant; copies: 1;1;1;1;1;1; label: 32P 5' (EMSA); no G4

B1: TERRA (structured_RNA)
RNA: AAAAAAAAAAGAGAGAGAUUAGGGUUAGGGUUAGGGUUAGGGAGAGAGAG
- Kd ([1]; single intramolecular G4 in K+): 18 ± 9 nM

B2: P10 (ssRNA)
RNA: UUUUUUUUUUCUCUUUCUCUCCUUCUCUUCCUCUCUCUCCUCUUUCUCUC
- binding signal ([2]; single strand): ~4 fold weaker than TERRA/Poly(U)/Poly(C)

B3: 2G4 (structured_RNA)
RNA: AAAAAAAAAAGGGAAGGGAAGGGAAGGGAACAACAACAACAACAAGGGAAGGGAAGGGAAGGGAA
- binding result [3]: binds

B4: pUG-fold (structured_RNA)
RNA: AAAAAAAAAAGUGUGUGUGUGUGUGUGUGUGUGUGUGUGUGUGUGUGUGU
- binding signal ([2]; atypical G4 (pUG-fold: three G quartets and one U quartet)): ~2 fold weaker than TERRA/Poly(U)/Poly(C)

B5: Poly(U) (ssRNA)
RNA: UUUUUUUUUUUUUUUUUUUUUUUUUUUUUUUUUUUUUUUUUUUUUUUUUU
- Kd ([1]; single strand): 28 ± 4 nM

B6: TERRAmut (ssRNA)
RNA: AAAAAAAAAAGAGAGAGAUGAGUGUGAGUGUGAGUGUGAGUGAGAGAGAG
- Kd [4]: 112 ± 24 nM
- Kd ([1]; no G4): 66 ± 15 nM

From article PMC13316113, “RNA-induced PRC2 inhibition depends on the sequence of bound RNA”
